These results are taken from paper PMC4772073.

The term stoichiometry N denotes the number of molecules, sites or subunits per partner or assembly.

This experiment addresses dUltramarine2. The experiment can be described thus: SEC; gel filtration chromatography; conditions not given in the main text (Supplementary Fig. 7). (In gel filtration, larger molecules generally elute earlier.)

dUltramarine2 had a stoichiometry N of 2.
